# Test results published in paper PMC2691550 (Biochemistry, 2006).
# B1: Tyrosine phenol-lyase holoenzyme (Citrobacter freundii), in complex with pyridoxal-5′-phosphate and K+ at pH 8.0 (enzyme, UniProt P31013 1-456, looked up)
# chain: MNYPAEPFRIKSVETVSMIPRDERLKKMQEAGYNTFLLNSKDIYIDLLTDSGTNAMSDKQWAGMMMGDEAYAGSENFYHLERTVQELFGFKHIVPTHQGRGAENLLSQLAIKPGQYVAGNMYFTTTRYHQEKNGAVFVDIVRDEAHDAGLNIAFKGDIDLKKLQKLIDEKGAENIAYICLAVTVNLAGGQPVSMANMRAVRELTEAHGIKVFYDATRCVENAYFIKEQEQGFENKSIAEIVHEMFSYADGCTMSGKKDCLVNIGGFLCMNDDEMFSSAKELVVVYEGMPSYGGLAGRDMEAMAIGLREAMQYEYIEHRVKQVRYLGDKLKAAGVPIVEPVGGHAVFLDARRFCEHLTQDEFPAQSLAASIYVETGVRSMERGIISAGRNNVTGEHHRPKLETVRLTIPRRVYTYAHMDVVADGIIKLYQHKEDIRGLKFIYEPKQLRFFTARFDYI
# modifications: Lys257 Nζ covalently linked to C4′ of pyridoxal-5′-phosphate (internal aldimine)
# Biological target: the molecule itself
# Assay: crystal structure
protein,measurement,value
B1,stoichiometry N,4
